B1: chimpanzee/human anti-B5 MAb 8AH8AL (antibody, V domains shown)
VH: EVQLLESGGGLIKPGGSLRLSCAASGFIFRDYNINWVRQAPGKGLEWLGFIRTRASGRSTEYSASVKGRFTISRDDSKNIAYLHINSLKMEDTAVYYCAKKGDSYYYMDFWGKGTAVTVS
VL: ELALTQPASVSGSPGQSITISCTGGRSDLGDSNFVSWYQQYPGKAPKLLIYQVNKRPSGVPDRFSASKSANTASLTISGLQTEDEADYFCSSYTTTSTYVFGIGTKVVVLG
notes: also called anti-B5 8AH8AL; Anti-B5 8AH8AL
B2: chimpanzee/human anti-B5 MAb 8AH7AL (antibody, V domains shown)
VH: B1 VH
VL: ELALTQPPSVSGSPGQSITISCTGTSSDVGGHNGVSWYQQYPGKAPKVMIYEVNKRPSGVSNRLSGSKSGNTASLTISGLQAEDEGDYYCSSYRNGGSVVFGGGTKLTVLG
notes: also called anti-B5 8AH7AL

Columns and labels:
BSA [1] = biological target: T1, BSA (UniProt P02769 25-607); assay: ELISA, wells coated with the unrelated protein, IgG titrated
T1 construct: Unrelated control protein

BSA [2] = biological target: T1, BSA; assay: ELISA, protein coated on wells

T1 sequence (P02769 25-607 limits assumed): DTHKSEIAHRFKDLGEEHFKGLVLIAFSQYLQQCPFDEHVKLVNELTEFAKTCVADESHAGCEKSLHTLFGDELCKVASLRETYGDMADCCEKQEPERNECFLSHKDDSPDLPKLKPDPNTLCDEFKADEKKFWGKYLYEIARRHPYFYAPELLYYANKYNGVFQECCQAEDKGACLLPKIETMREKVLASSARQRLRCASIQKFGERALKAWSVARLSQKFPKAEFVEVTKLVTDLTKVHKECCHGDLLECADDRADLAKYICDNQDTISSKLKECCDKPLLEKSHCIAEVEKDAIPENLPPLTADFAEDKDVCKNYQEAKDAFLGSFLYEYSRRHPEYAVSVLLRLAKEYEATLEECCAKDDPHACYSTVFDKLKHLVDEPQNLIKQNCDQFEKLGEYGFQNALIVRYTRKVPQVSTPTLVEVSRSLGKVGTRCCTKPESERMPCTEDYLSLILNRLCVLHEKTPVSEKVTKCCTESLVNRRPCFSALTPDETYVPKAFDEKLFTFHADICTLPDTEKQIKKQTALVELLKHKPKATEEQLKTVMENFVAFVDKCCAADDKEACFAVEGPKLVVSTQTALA

Binder	binding result (BSA [1])	binding result (BSA [2])
B1	no binding (tested: 10^4 ng/ml)	
B2		no binding

— patent US20090155250A1 (US Dept. of Health and Human Services, published 2009)
